From the Human Domainome abundance scans (Beltran et al. 2025) come the findings set out here.

± gives the uncertainty stated by the source.

The labels stand for the following.
B1: Zinc finger homeobox protein 3, residues 2643 to 2698; numbered along this chain, Q15911 (parent)
chain: RLRTTITPEQLEILYQKYLLDSNPTRKMLDHIAHEVGLKKRVVQVWFQNTRARERK

Variants of B1 are the subject of the data set. The experiment in a line: abundance fitness (aPCA) (normalised: wild type 0, dead -1); higher = more abundant; growth selection in yeast, the domain comes from the species named. The note with it: Homo sapiens.
As for RLRTTITPEQLEILYQKYLLDSNPTRKMLDHIAHEVGLKKRVVQHWFQNTRARERK, the abundance fitness was -0.001 ± 0.15.
Consider RLRTTITPEQLEILYQKYLLDSNPTRKMLDHIAHEVGLKKRVVQFWFQNTRARERK, for which the abundance fitness was -0.028 ± 0.15.
Regarding RLRTTITPEQLEILYQKYLLDSNPTRKMLDHIAHEVGLKKRVVQLWFQNTRARERK, the abundance fitness is 0.122 ± 0.084.
Consider RLRTTITPEQLEILYQKYLLDSNPTRKMLDHIAHEVGLKKRVVQEWFQNTRARERK, for which the abundance fitness was 0.452 ± 0.097.
Consider RLRTTITPEQLEILYQKYLLDSNPTRKMLDHIAHEVGLKKRVVQYWFQNTRARERK, for which the abundance fitness was -0.263 ± 0.14.
As to RLRTTITPEQLEILYQKYLLDSNPTRKMLDHIAHEVGLKKRVVQTWFQNTRARERK, the abundance fitness was -0.24 ± 0.11.
In the case of RLRTTITPEQLEILYQKYLLDSNPTRKMLDHIAHEVGLKKRVVQWWFQNTRARERK, the abundance fitness was -0.317 ± 0.11.
As to RLRTTITPEQLEILYQKYLLDSNPTRKMLDHIAHEVGLKKRVVQKWFQNTRARERK, the abundance fitness is -0.399 ± 0.12.
For the variant RLRTTITPEQLEILYQKYLLDSNPTRKMLDHIAHEVGLKKRVVQMWFQNTRARERK, the abundance fitness is -0.005 ± 0.1.
The same measure for RLRTTITPEQLEILYQKYLLDSNPTRKMLDHIAHEVGLKKRVVQGWFQNTRARERK: -0.213 ± 0.076; for RLRTTITPEQLEILYQKYLLDSNPTRKMLDHIAHEVGLKKRVVQAWFQNTRARERK: -0.365 ± 0.096.
As to RLRTTITPEQLEILYQKYLLDSNPTRKMLDHIAHEVGLKKRVVQCWFQNTRARERK, the abundance fitness is -0.329 ± 0.12.
The figure for RLRTTITPEQLEILYQKYLLDSNPTRKMLDHIAHEVGLKKRVVQQWFQNTRARERK is -0.016 ± 0.11; for RLRTTITPEQLEILYQKYLLDSNPTRKMLDHIAHEVGLKKRVVQNWFQNTRARERK it is -0.489 ± 0.17; for RLRTTITPEQLEILYQKYLLDSNPTRKMLDHIAHEVGLKKRVVQRWFQNTRARERK it is -0.561 ± 0.084.
The same measure for RLRTTITPEQLEILYQKYLLDSNPTRKMLDHIAHEVGLKKRVVQSWFQNTRARERK: -0.359 ± 0.097; for RLRTTITPEQLEILYQKYLLDSNPTRKMLDHIAHEVGLKKRVVQPWFQNTRARERK: -0.764 ± 0.14.
The same measure for RLRTTITPEQLEILYQKYLLDSNPTRKMLDHIAHEVGLKKRVVQIWFQNTRARERK: 0.158 ± 0.11; for RLRTTITPEQLEILYQKYLLDSNPTRKMLDHIAHEVGLKKRVVYVWFQNTRARERK: -0.114 ± 0.12.
Take RLRTTITPEQLEILYQKYLLDSNPTRKMLDHIAHEVGLKKRVVAVWFQNTRARERK: the abundance fitness worked out at 0 ± 0.082.
As to RLRTTITPEQLEILYQKYLLDSNPTRKMLDHIAHEVGLKKRVVPVWFQNTRARERK, the abundance fitness is -0.723 ± 0.12.
Regarding RLRTTITPEQLEILYQKYLLDSNPTRKMLDHIAHEVGLKKRVVHVWFQNTRARERK, the abundance fitness was -0.038 ± 0.15.
As for RLRTTITPEQLEILYQKYLLDSNPTRKMLDHIAHEVGLKKRVVRVWFQNTRARERK, the abundance fitness was -0.331 ± 0.094.
RLRTTITPEQLEILYQKYLLDSNPTRKMLDHIAHEVGLKKRVVMVWFQNTRARERK: the abundance fitness is -0.164 ± 0.1.
Turning to RLRTTITPEQLEILYQKYLLDSNPTRKMLDHIAHEVGLKKRVVLVWFQNTRARERK, the abundance fitness was -0.347 ± 0.082.
Consider RLRTTITPEQLEILYQKYLLDSNPTRKMLDHIAHEVGLKKRVVVVWFQNTRARERK, for which the abundance fitness was -0.179 ± 0.085.
In the case of RLRTTITPEQLEILYQKYLLDSNPTRKMLDHIAHEVGLKKRVVSVWFQNTRARERK, the abundance fitness is -0.044 ± 0.097.
The figure for RLRTTITPEQLEILYQKYLLDSNPTRKMLDHIAHEVGLKKRVVKVWFQNTRARERK is -0.236 ± 0.12; for RLRTTITPEQLEILYQKYLLDSNPTRKMLDHIAHEVGLKKRVVGVWFQNTRARERK it is 0.023 ± 0.091.
For RLRTTITPEQLEILYQKYLLDSNPTRKMLDHIAHEVGLKKRVVDVWFQNTRARERK, the abundance fitness came to 0.481 ± 0.12.
On to RLRTTITPEQLEILYQKYLLDSNPTRKMLDHIAHEVGLKKRVVTVWFQNTRARERK, for which the abundance fitness was -0.209 ± 0.098.
The same measure for RLRTTITPEQLEILYQKYLLDSNPTRKMLDHIAHEVGLKKRVVEVWFQNTRARERK: 0.283 ± 0.098; for RLRTTITPEQLEILYQKYLLDSNPTRKMLDHIAHEVGLKKRVVIVWFQNTRARERK: -0.286 ± 0.13; for RLRTTITPEQLEILYQKYLLDSNPTRKMLDHIAHEVGLKKRVVCVWFQNTRARERK: -0.193 ± 0.17.
The figure for RLRTTITPEQLEILYQKYLLDSNPTRKMLDHIAHEVGLKKRVVWVWFQNTRARERK is -0.669 ± 0.14; for RLRTTITPEQLEILYQKYLLDSNPTRKMLDHIAHEVGLKKRVYQVWFQNTRARERK it is -0.807 ± 0.22; for RLRTTITPEQLEILYQKYLLDSNPTRKMLDHIAHEVGLKKRVWQVWFQNTRARERK it is -1.07 ± 0.18.
The figure for RLRTTITPEQLEILYQKYLLDSNPTRKMLDHIAHEVGLKKRVSQVWFQNTRARERK is -0.821 ± 0.11; for RLRTTITPEQLEILYQKYLLDSNPTRKMLDHIAHEVGLKKRVTQVWFQNTRARERK it is -0.548 ± 0.11; for RLRTTITPEQLEILYQKYLLDSNPTRKMLDHIAHEVGLKKRVVQVLFQNTRARERK it is -0.758 ± 0.12.
For the variant RLRTTITPEQLEILYQKYLLDSNPTRKMLDHIAHEVGLKKRVVQVEFQNTRARERK, the abundance fitness was -1.08 ± 0.18.
The figure for RLRTTITPEQLEILYQKYLLDSNPTRKMLDHIAHEVGLKKRVVQVHFQNTRARERK is -0.897 ± 0.31.
Consider RLRTTITPEQLEILYQKYLLDSNPTRKMLDHIAHEVGLKKRVVQVDFQNTRARERK, for which the abundance fitness was -0.815 ± 0.2.
On to RLRTTITPEQLEILYQKYLLDSNPTRKMLDHIAHEVGLKKRVVQVFFQNTRARERK, for which the abundance fitness is -0.462 ± 0.3.
Consider RLRTTITPEQLEILYQKYLLDSNPTRKMLDHIAHEVGLKKRVVQVIFQNTRARERK, for which the abundance fitness was -1.03 ± 0.38.
Regarding RLRTTITPEQLEILYQKYLLDSNPTRKMLDHIAHEVGLKKRVVQVAFQNTRARERK, the abundance fitness was -0.482 ± 0.12.
Take RLRTTITPEQLEILYQKYLLDSNPTRKMLDHIAHEVGLKKRVVQVGFQNTRARERK: the abundance fitness was -0.792 ± 0.1.
